Results: patent EP2536430B1

Molecular target: interleukin 3 receptor α (IL-3Rα) chain on human pDCs and basophils (human) (UniProt P26951)
Test: cell-based or functional assay

Sequence of UniProt P26951 (P26951 20-378): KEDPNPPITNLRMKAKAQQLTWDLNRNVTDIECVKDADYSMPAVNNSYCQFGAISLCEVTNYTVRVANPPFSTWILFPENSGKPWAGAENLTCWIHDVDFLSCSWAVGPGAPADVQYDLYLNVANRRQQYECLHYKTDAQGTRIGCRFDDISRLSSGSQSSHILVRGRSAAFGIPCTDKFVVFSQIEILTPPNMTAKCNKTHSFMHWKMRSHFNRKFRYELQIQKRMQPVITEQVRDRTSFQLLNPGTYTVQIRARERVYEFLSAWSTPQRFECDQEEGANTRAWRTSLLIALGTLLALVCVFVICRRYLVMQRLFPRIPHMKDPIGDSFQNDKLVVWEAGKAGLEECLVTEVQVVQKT

- pDCs (% of total cells remaining in culture), 4h, 10 µg/ml antibody on human PBMC (% of total cells remaining in culture): 0.1
- pDCs (% of total cells remaining in culture), 24h, 10 µg/ml antibody on human PBMC (% of total cells remaining in culture): 0.02
- pDCs (% of total cells remaining in culture), 48h, 10 µg/ml antibody on human PBMC (% of total cells remaining in culture): 0.005
Substance: ch7G3 (chimeric version of 7G3 with a human IgG1 constant domain) (antibody)
